Experimental data taken from patent publication US20250066456A1 (NOVAVAX, published 2025).

How the values were obtained:
[1] = molecular target: T1, BV2523 (recombinant CoV S glycoprotein, BA.2) (SARS-CoV-2, UniProt P0DTC2 14-1273); test: ELISA on coated rS
[2] = molecular target: T2, BV2540 (recombinant CoV S glycoprotein, BA.5) (SARS-CoV-2, UniProt P0DTC2 14-1273); test: ELISA on coated rS
[3] = molecular target: T3, BV2542 (recombinant CoV S glycoprotein, BA.2.12.1) (SARS-CoV-2, UniProt P0DTC2 14-1273); test: ELISA on coated rS
[4] = molecular target: T4, RBD of a CoV S glycoprotein related to a CoV S glycoprotein from the SARS-CoV-2 omicron strain (SARS-CoV-2 omicron strain); test: BLI, RBD-His on Ni-NTA biosensor, antibody analyte
T4 construct: domain: RBD

[5] = molecular target: BV2373 (recombinant CoV S glycoprotein, Prototype) (SARS-CoV-2, UniProt P0DTC2 14-1273); test: BLI, antibody on anti-mouse Fc biosensor, rS analyte
[6] = molecular target: BV2425 (recombinant CoV S glycoprotein, Alpha) (SARS-CoV-2, UniProt P0DTC2 14-1273); test: as above
[7] = molecular target: BV2438 (recombinant CoV S glycoprotein, Beta) (SARS-CoV-2, UniProt P0DTC2 14-1273); test: as above
[8] = molecular target: BV2443 (recombinant CoV S glycoprotein, Gamma) (SARS-CoV-2, UniProt P0DTC2 14-1273); test: as above
[9] = molecular target: BV2465 (recombinant CoV S glycoprotein, Delta) (SARS-CoV-2, UniProt P0DTC2 14-1273); test: as above
[10] = molecular target: T5, BV2509 (recombinant CoV S glycoprotein, BA.1) (SARS-CoV-2, UniProt P0DTC2 14-1273); test: as above
[11] = molecular target: T1, BV2523 (recombinant CoV S glycoprotein, …); test: as above
[12] = molecular target: T2, BV2540 (recombinant CoV S glycoprotein, …); test: as above
[13] = molecular target: T6, BV2541 (recombinant CoV S glycoprotein, BA.4) (SARS-CoV-2, UniProt P0DTC2 14-1273); test: as above
[14] = molecular target: T3, BV2542 (recombinant CoV S glycoprotein, …); test: as above
[15] = molecular target: T7, BV2561 (recombinant CoV S glycoprotein, BA.2.75) (SARS-CoV-2, UniProt P0DTC2 14-1273); test: as above
[16] = molecular target: T8, BV2562 (recombinant CoV S glycoprotein, BA.4.6) (SARS-CoV-2, UniProt P0DTC2 14-1273); test: as above
[17] = molecular target: T5, BV2509 (recombinant CoV S glycoprotein, …); test: hACE2 receptor inhibition ELISA on coated rS; competitor hACE2-His
[18] = molecular target: T1, BV2523 (recombinant CoV S glycoprotein, …); test: as above
[19] = molecular target: T2, BV2540 (recombinant CoV S glycoprotein, …); test: as above
[20] = molecular target: T6, BV2541 (recombinant CoV S glycoprotein, …); test: as above
[21] = molecular target: T3, BV2542 (recombinant CoV S glycoprotein, …); test: as above
[22] = molecular target: T7, BV2561 (recombinant CoV S glycoprotein, …); test: as above
[23] = molecular target: T8, BV2562 (recombinant CoV S glycoprotein, …); test: as above
[24] = molecular target: BV2589 (recombinant CoV S glycoprotein, BQ.1.1) (SARS-CoV-2, UniProt P0DTC2 14-1273); test: as above

B1: 322.3 (antibody, V domains shown)
VH: RVQLQQSGPELVKPGASVTISCKASGYIFTSDYIHWVKQRPGQGPEWIGWIYPGNINTKYNEKFKGKATLTADKSSSTAYMQLSSLTSEDSAVYFCARDDGNLYYYAMDYWGQGTSVTVSS
VL: NIVLTQSPASLAVSLGQRATISCRASESVDSYGSSFMHWYQQKPGQPPKLLIYLASNLESGVPARFSGSGSRTDFTLTIDPVEADDAATYYCQQNNEDPRTFGGGTKLEIK
Binder B1 has an EC50 [1] of 0.195 µg/mL, an EC50 [2] of 0.045 µg/mL and an EC50 [3] of 0.225 µg/mL. The Kd [4] was 1.69 pM, the kon [4] was 138000 M⁻¹ s⁻¹ and the Kd [5] was 57.1 pM. The Kd [6] was 78.7 pM, the Kd [7] was 6.48 pM and the koff [7] was 1.24e-07 s⁻¹. It also gave a kon [7] of 20100 M⁻¹ s⁻¹, a Kd [8] of 107 pM and a koff [8] of 1.26e-07 s⁻¹. The kon [8] was 1180 M⁻¹ s⁻¹, the Kd [9] was 78.7 pM and the Kd [10] was 87.4 pM. For the same binder, the Kd [11] was 40.5 pM, the Kd [12] was 13.2 pM and the koff [12] was 1.46e-07 s⁻¹. The kon [12] was 11100 M⁻¹ s⁻¹, the Kd [13] was under 1 pM and the Kd [14] was 41.5 pM. It also gave a koff [14] of 1.22e-07 s⁻¹, a kon [14] of 2690 M⁻¹ s⁻¹ and a Kd [15] of 4.47 pM. It also gave a Kd [16] of under 1 pM, an IC50 [17] of 0.493 µg/mL and an IC50 [18] of 0.224 µg/mL. It also gave an IC50 [19] of 0.779 µg/mL, an IC50 [20] of 0.543 µg/mL and an IC50 [21] of 0.866 µg/mL. The IC50 [22] was over 5 µg/mL, the IC50 [23] was 0.411 µg/mL and the IC50 [24] was 0.265 µg/mL.

B2: 35.13 (antibody, V domains shown)
VH: QVQLQQSGAELGKPGASVKLSCRASGYTFTRYYIYWVKQRPGQGLEWIGEINPSNGDTHFNEKFKTKATLTVDKSSSSAHIHLTSLTSEDSAVYYCSIHAYSFDFWGQGTTLTVSS
VL: EIQMTQSPSSMSASLGDRITITCQATQDIVKNLNWYQQKPGKPPSFLIYHATELAKGVPSRFSGSGSGSDYSLTISNLESEDFADYYCLQFYDFPFTFGAGTKLELKR
B2 gave an EC50 [1] of 0.053 µg/mL, an EC50 [2] of 1.03 µg/mL and an EC50 [3] of 0.104 µg/mL. The Kd [4] was 1.93 pM, the kon [4] was 142000 M⁻¹ s⁻¹ and the Kd [5] was 5.29 pM. It also gave a koff [5] of 1.67e-07 s⁻¹, a kon [5] of 33000 M⁻¹ s⁻¹ and a Kd [6] of 3.22 pM. The Kd [7] was 15.2 pM, the koff [7] was 1.54e-07 s⁻¹ and the kon [7] was 10500 M⁻¹ s⁻¹. For the same binder, the Kd [8] was 19.8 pM, the koff [8] was 1.7e-07 s⁻¹ and the kon [8] was 9090 M⁻¹ s⁻¹. The Kd [9] was 3.73 pM, the koff [9] was 1.42e-07 s⁻¹ and the kon [9] was 41900 M⁻¹ s⁻¹. The Kd [10] was 9.82 pM, the koff [10] was 1.52e-07 s⁻¹ and the kon [10] was 15500 M⁻¹ s⁻¹. For the same binder, the Kd [11] was 8.43 pM, the koff [11] was 1.61e-07 s⁻¹ and the kon [11] was 19100 M⁻¹ s⁻¹. The Kd [12] was 7.23 pM, the koff [12] was 1.21e-07 s⁻¹ and the kon [12] was 17600 M⁻¹ s⁻¹. For the same binder, the Kd [13] was under 1 pM, the koff [13] was under 1e-07 s⁻¹ and the kon [13] was 22700 M⁻¹ s⁻¹. It also gave a Kd [14] of 7.87 pM, a koff [14] of 1.14e-07 s⁻¹ and a kon [14] of 15000 M⁻¹ s⁻¹. For the same binder, the Kd [15] was 6.87 pM, the Kd [16] was under 1 pM and the koff [16] was under 1e-07 s⁻¹. For the same binder, the kon [16] was 38500 M⁻¹ s⁻¹, the IC50 [17] was 0.097 µg/mL and the IC50 [18] was 0.126 µg/mL. For the same binder, the IC50 [19] was over 3 µg/mL, the IC50 [20] was over 5 µg/mL and the IC50 [21] was 0.177 µg/mL. The IC50 [22] was 0.169 µg/mL, the IC50 [23] was over 5 µg/mL and the IC50 [24] was over 3 µg/mL.

B3: 425.6 (antibody, V domains shown)
VH: VQLKQSGPSLVQPSQSLSITCTVSGFSLTSYGIHWVRQSPGKGLEWLGVIWRGGSTDYNAAFMSRLTITKDNSKSQVFFKMNSLQADDTAIYYCATHTEGDDVDYWGQGTSVTVSS
VL: QIVLTQSPAIMSVSPGEKVTMTCSASSTMSFMYWYQQKPGSSPRLLIYDTSNLASGVPVRFSGSGSGTSYSLTISRVEAEDAATYYCQQWNTYPLTFGAGTKLELKR
B3 gave an EC50 [1] of 0.028 µg/mL, an EC50 [2] of 0.014 µg/mL and an EC50 [3] of 0.034 µg/mL. It also gave a Kd [4] of 4890 pM, a koff [4] of 0.00123 s⁻¹ and a kon [4] of 272000 M⁻¹ s⁻¹. It also gave a Kd [5] of under 1 pM, a Kd [6] of under 1 pM and a Kd [7] of under 1 pM. For the same binder, the Kd [8] was under 1 pM, the Kd [9] was under 1 pM and the Kd [10] was 3.91 pM. It also gave a koff [10] of 1.54e-07 s⁻¹, a kon [10] of 41300 M⁻¹ s⁻¹ and a Kd [11] of 3.69 pM. The koff [11] was 1.37e-07 s⁻¹, the kon [11] was 38200 M⁻¹ s⁻¹ and the Kd [12] was 1.76 pM. The koff [12] was 1.5e-07 s⁻¹, the kon [12] was 85900 M⁻¹ s⁻¹ and the Kd [13] was under 1 pM. For the same binder, the Kd [14] was 3.81 pM, the koff [14] was 1.51e-07 s⁻¹ and the kon [14] was 40200 M⁻¹ s⁻¹. It also gave a Kd [15] of under 1 pM, a koff [15] of under 1e-07 s⁻¹ and a kon [15] of 46900 M⁻¹ s⁻¹. It also gave a Kd [16] of under 1 pM, an IC50 [17] of over 3 µg/mL and an IC50 [18] of 0.032 µg/mL. For the same binder, the IC50 [19] was 0.028 µg/mL, the IC50 [20] was 0.037 µg/mL and the IC50 [21] was 0.028 µg/mL. The IC50 [22] was over 5 µg/mL, the IC50 [23] was 0.071 µg/mL and the IC50 [24] was over 3 µg/mL.
